2 molecules from patent publication US20180230220A1 (Amgen, published 2018) can be followed below.

Holding throughout (assay): cell-based or functional assay
The target of assay [1] is T1, FOLR1 (human, UniProt P15328 25-234).
Assay [2] addresses T1, FOLR1. The source holds these as a separate data set.
Assay [3] deals with T2, HER2 (human, UniProt P04626 23-1255).
For assay [4], the target named is T2, HER2. The source holds these as a separate data set.

T1 sequence (P15328 25-234): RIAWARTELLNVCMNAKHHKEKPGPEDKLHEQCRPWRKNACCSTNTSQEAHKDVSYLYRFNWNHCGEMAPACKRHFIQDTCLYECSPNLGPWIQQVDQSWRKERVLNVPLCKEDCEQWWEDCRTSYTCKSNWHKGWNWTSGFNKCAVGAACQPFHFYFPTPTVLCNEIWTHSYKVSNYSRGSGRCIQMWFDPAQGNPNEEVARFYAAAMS

B1: anti-FOLR1/CD3 Bi-Fc (bispecific antibody)
chain 1: not shown
chain 2: HMSSVSAQAAAEPKSSDKTHTCPPCPAPEAAGGPSVFLFPPKPKDTLMISRTPEVTCVVVDVSHEDPEVKFNWYVDGVEVHNAKTKPREEQYNSTYRVVSVLTVLHQDWLNGKEYKCKVSNKALPAPIEKTISKAKGQPREPQVYTLPPSREEMTKNQVSLTCLVKGFYPSDIAVEWESNGQPENNYDTTPPVLDSDGSFFLYSDLTVDKSRWQQGNVFSCSVMHEALHNHYTQKSLSLSPGK
B1: in assay [1], the “EC50 (pM) for eliciting IFN-γ secretion by T cells, T47D cells” value is 48.6 pM; the “EC50 (pM) for eliciting IL-2 secretion by T cells, T47D cells” value is 67.3 pM; the “EC50 (pM) for eliciting IL-10 secretion by T cells, T47D cells” value came out at 110 pM; the “EC50 (pM) for eliciting IL-13 secretion by T cells, T47D cells” value was found to be 127 pM. Moreover, in assay [1], the “EC50 (pM) for eliciting TNF-α secretion by T cells, T47D cells” value was 41.2 pM. In assay [2], the “EC50 (pM), T cell-dependent cell cytolysis (TDCC), Cal-51 cells” value amounted to 1.27 pM and the “EC50 (pM), T cell-dependent cell cytolysis (TDCC), T47D cells” value was 1.35 pM.

B2: anti-HER2/CD3 Bi-Fc (bispecific antibody)
chain 1: not shown
chain 2: B1 chain 2
On to B2, for which, in assay [3], the “EC50 (pM) for eliciting IFN-γ secretion by T cells, JIMT-1 cells” value is 32.9 pM; the “EC50 (pM) for eliciting IL-2 secretion by T cells, JIMT-1 cells” value was 22.3 pM; the “EC50 (pM) for eliciting IL-10 secretion by T cells, JIMT-1 cells” value turned out to be 9.6 pM; the “EC50 (pM) for eliciting IL-13 secretion by T cells, JIMT-1 cells” value was 16.4 pM. Further, the “EC50 (pM) for eliciting TNF-α secretion by T cells, JIMT-1 cells” value in assay [3] worked out at 19.5 pM. In assay [4], the “EC50 (pM), T cell-dependent cell cytolysis (TDCC), JIMT-1 cells” value came to 11.5 pM and the “EC50 (pM), T cell-dependent cell cytolysis (TDCC), T47D cells” value was found to be 1.03 pM.
